Measurements: the supplement of paper PMC12042874
± gives the uncertainty stated by the source.

assay: amyloid nucleation score (Sup35N fusion, yeast selection) (log enrichment); library NNK2; higher = more nucleation; inactive = no reads after selection
How it was run: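 The nucleation score, computed with DiMSum, is the log enrichment of output over input reads, centred on the mode score of non-aggregating sequences. Sequences with under 100 input reads were dropped. Reads were generated by Illumina sequencing of plasmid inserts from psi-negative yeast with Sup35N fused to peptides of 20 random codons, induced with 100 μM copper sulfate for 24 hours and grown 7 days at 30°C on medium lacking adenine and uracil.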

| Substance | amyloid nucleation score |
| --- | --- |
| AYYYTVLYYSFNMFRFVYTW | inactive |
| KDLEFGRCIDDDYPLSRSF | 0.141 ± 0.46 |
| IASISERLYCFAGPTIRCNR | 0.338 ± 0.43 |
| VFCYRSDMSGTSSGGGYQM | -0.178 ± 0.29 |
| GVTPG | 0.752 ± 0.16 |
| TLDVIGIYLAGVGRFDGKSA | 0.261 ± 0.49 |
| VFNWLNRGEESWDVVLVV | inactive |
| CGMCKF | -0.487 ± 0.29 |
| WLFTRRTLVWQSTHPNVMTT | inactive |
| KFDLSCNPNSPGSLRYTLNN | inactive |
| CSLLVTLWE | 0.554 ± 0.23 |
| TKRMLERVTFFVHWCWLWSV | 1.09 ± 0.15 |
| FSLSCM | inactive |
| LYYASGRIRFCLHWHLIARV | 4.894 ± 0.041 |
| YFTWQHLRNSRMWV | 3.34 ± 0.11 |
| RLGEWECTHQVPFHSRWACG | -0.087 ± 0.76 |
| GNAQGSTFYVVPFIQYRVFM | 6.744 ± 0.035 |
| WGHANFAEVWNDP | 0.385 ± 0.6 |
| GYWTGELH | inactive |
| PRRNWMLVCTIIFVWNEKEY | 0.034 ± 1.1 |
| FLISEDVFHSNSSVWEHISL | -0.173 ± 0.56 |
| NFSYNRCVR | 0.383 ± 0.49 |
| LAGYSHTI | 0.406 ± 0.46 |

| Substance | amyloid nucleation score |
| --- | --- |
| YMRMKW | 3.46 ± 0.079 |
| PMSYLVWVSDFYLLRGGS | 0.019 ± 1.1 |
| CNGYTKRRYTRYSYKWFAVA | -0.15 ± 0.45 |
| FSPTGSITWNCIRYYLVTRS | -0.279 ± 0.33 |
| DDERYDVPLWSFGVRYYISG | -0.384 ± 0.54 |
| SLSLSSVERNGAANSAREFG | 0.647 ± 0.31 |
| RFQFSICHYYDLNFS | 0.594 ± 0.66 |
| FCIQK | -0.114 ± 0.55 |
| YVPYLLTLCCRCSSLGFR | -1.08 ± 1.1 |
| ISTFSRVHLSKVYLRDSTIV | -1.92 ± 1.1 |
| KGDGNRSDTDVFITHIFMYY | 6.336 ± 0.048 |
| QYVMERYWRDWFKRMMLLFS | 0.584 ± 0.27 |
| RCVWYSGSRLWTYWQVWLMG | 0.458 ± 0.8 |
| CYNALWLFGNHAKTAHGLGH | 0.709 ± 0.48 |
| SCMYIFLFLNSNIQLIVWDV | -0.137 ± 1.1 |
| LIGIYLPWSL | -0.735 ± 0.45 |
| EFDQWFLLFSLRSSFGLYLF | 0.078 ± 0.25 |
| KGGEVEGLSLR | -0.889 ± 0.63 |
| NFSYASNTEHRPVSNIFWEL | -1.33 ± 0.62 |
| GWSSSHVWVGLNS | 2.44 ± 0.21 |
| IVGLQVAFFLVFKSVHRDVA | inactive |
| FIKRSAGNREANYNVTKENA | 0.816 ± 0.74 |
| RFCFVTIYSHRGVYANRMGM | 4.31 ± 0.075 |

| Substance | amyloid nucleation score |
| --- | --- |
| MEYRGQVQGCSYPWVYRLGW | -0.078 ± 0.54 |
| ILYFCRVLITVCMIVDMWGE | 0.333 ± 0.64 |
| FLGSVSVLLDKSSSGVNSKR | -0.284 ± 1.1 |
| RLIDCVVVRVFINNVMLPAY | 5.45 ± 0.056 |
| NLKRVKRMIPYYTTQ | -0.343 ± 0.33 |
| NLSSWTVLILRSDAVVPVFL | 4.07 ± 0.078 |
| LYTQESYSDSFVNSLRCSKV | -0.064 ± 1.1 |
| FAFTPIC | -1.59 ± 1 |
| VYCLSVMSARSQFCVWGWML | 0.165 ± 1 |
| WCVMLGLGSQGSRILRVLRM | 0.29 ± 0.29 |
| LMNMSSRSTQCNNQG | -0.139 ± 0.55 |
| YNVGALASVSRFRDGFGLS | 1.57 ± 0.1 |
| YPIVLRA | 1.01 ± 0.48 |
| LIDLKGQRSHGVTKGLTDFP | -0.406 ± 0.36 |
| RIYFTPRYLDIDFYWTLNAV | -0.598 ± 0.64 |
| TVELLGILAHCSFCS | 8.247 ± 0.054 |
| CSSRNILDWKFVFFVCYFT | 3.41 ± 0.12 |
| PVSALAVFRCLMYSCFCGDL | 6.172 ± 0.035 |
| HVRYYGTHSTVNDNYIRNVR | 0.425 ± 0.31 |
| DKVFDLTQMGFL | inactive |
| VNLVYSYFNISGWIEFSSLC | 2.98 ± 0.053 |
| VNSEISDYLHDGDGSRVRSI | -0.025 ± 0.79 |
| CIRFVVMNIYGAASDKSMVG | 7.422 ± 0.036 |
